Measured values published in patent US20040223972A1 (FUNCTIONAL GENETICS, published 2004).

Target: T1, Ebola VP40 (1-326) (Ebola virus (EBOV), UniProt Q05128 1-326)
T1 sequence: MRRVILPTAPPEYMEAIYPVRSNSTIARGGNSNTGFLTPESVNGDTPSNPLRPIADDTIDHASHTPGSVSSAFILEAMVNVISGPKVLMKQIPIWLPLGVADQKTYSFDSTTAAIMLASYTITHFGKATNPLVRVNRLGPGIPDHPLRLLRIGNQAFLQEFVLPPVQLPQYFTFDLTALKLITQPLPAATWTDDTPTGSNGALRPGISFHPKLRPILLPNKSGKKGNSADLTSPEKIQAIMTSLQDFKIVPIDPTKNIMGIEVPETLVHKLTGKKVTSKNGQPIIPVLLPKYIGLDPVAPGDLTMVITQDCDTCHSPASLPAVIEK
Test: co-immunoprecipitation with anti-Myc antibody from transfected 293T cells

B1: Myc tagged TSG101 truncated at position 140 (other)
chain: MAVSESQLKKMVSKYKYRDLTVRETVNVITLYKDLKPVLDSYVFNDGSSRELMNLTGTIPVPYRGNTYNIPICLWLLDTYPYNPPICFVKPTSSMTIKTGKHVDANGKIYLPYLHEWKHPQSDLLGLIQVMIVVFGDEPP
B1: no binding.
